From publication PMC4398458, “Reversible Linkage of Two Distinct Small Molecule Inhibitors of Myc Generates a Dimeric Inhibitor with Improved Potency That Is Active in Myc Over-Expressing Cancer Cell Lines” (PLoS ONE, 2015) come the findings set out here.

The target of this data set is c-Myc bHLH-LZ;Max (human;human, UniProt P01106-1;P61244 352-439;1-160, |). As to the kind of experiment: EMSA; Myc:Max heterodimer, no inhibitor; EMSA: 100 mM KCl, 1 mM DTT, 1 mM EDTA, 50 mM Tris pH 7.4, 5 mM MgCl2, 0.002% NP40, 2% DMSO, room temperature; 200 ng Myc, 350 ng Max, 100 nM DNA, 10 ul; gel run in TBE at 4 C. Conditions: protein: recombinant;commercial; tags: N-terminal 6xHis with TEV cleavage site; C-terminal GGCD extension;His and GST; copies: 1;1; label: none (SYBR Green stain); (only one strand given). On the technique in general: Mobility shift assays separate free from complexed probe on a gel.
c-Myc bHLH-LZ;Max, sequence (P01106 367-454, chain 1 of 2): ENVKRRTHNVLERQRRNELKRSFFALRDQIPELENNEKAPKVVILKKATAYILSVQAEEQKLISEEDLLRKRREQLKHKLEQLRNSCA
c-Myc bHLH-LZ;Max, sequence (P61244 whole entry, chain 2 of 2): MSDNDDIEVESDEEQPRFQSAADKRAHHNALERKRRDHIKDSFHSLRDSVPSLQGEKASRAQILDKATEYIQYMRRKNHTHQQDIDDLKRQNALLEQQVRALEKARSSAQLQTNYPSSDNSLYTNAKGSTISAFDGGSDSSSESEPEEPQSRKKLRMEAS

B1: E-box oligonucleotide (dsDNA)
DNA 1: GATCAGTTGACCACGTGGTCTGGG
DNA 2: CCCAGACCACGTGGTCAACTGATC
As to B1, the binding result is listed as “binds”.
